According to patent US8933202B2, “AXL antibodies” (U3 Pharma GmbH, priority 2007, dated 2015):

What was measured:
human AXL-ECD = molecular target: T1, human AXL-ECD (Homo sapiens, UniProt P30530); experiment: Competition ELISA on AXL-ECD coated plates; type: binding; details: 10 μg/ml unbiotinylated, 0.5 μg/ml biotinylated antibody
T1 construct: purchased R&D Systems 154-AL
T1 sequence (P30530 26-451 limits assumed): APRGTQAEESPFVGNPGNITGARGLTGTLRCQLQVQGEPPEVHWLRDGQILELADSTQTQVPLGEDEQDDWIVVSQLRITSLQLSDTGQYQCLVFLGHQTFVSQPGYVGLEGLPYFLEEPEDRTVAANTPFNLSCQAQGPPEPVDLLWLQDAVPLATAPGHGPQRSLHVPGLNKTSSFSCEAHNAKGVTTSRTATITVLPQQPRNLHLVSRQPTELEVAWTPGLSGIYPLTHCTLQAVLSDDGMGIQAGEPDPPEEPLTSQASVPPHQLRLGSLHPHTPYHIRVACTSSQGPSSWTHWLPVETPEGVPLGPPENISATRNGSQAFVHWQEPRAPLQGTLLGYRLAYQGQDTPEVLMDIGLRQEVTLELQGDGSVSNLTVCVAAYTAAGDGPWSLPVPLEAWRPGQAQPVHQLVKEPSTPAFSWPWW
Procedure: Therefore binding of biotinylated anti-AXL antibodies to AXL-ECD domain-coated plates preincubated with anti-AXL antibodies was determined in a competition ELISA. […] On day 1, black 96 well Maxi-Sorp plates (Nunc) were coated with 100 μl/well of 1 μg/ml human AXL-ECD (R&D Systems #154-AL) in PBS over night at 4° C. […] After washing 6× with wash buffer (PBS, 0.1% TWEEN-20), 80 μl/well AP-conjugated Streptavidin (Chemicon #SA110) diluted 1:4,000 in blocking buffer were added, incubated for 20 min at room temperature washed again 6× with wash buffer and finally washed once with PBS. For detection, 100 μl/well Attophos substrate solution (Roche #11681982) were added. Using a Victor plate reader (Perkin Elmer), the fluorescence of each well was collected at an excitation wavelength of 430 nm an emission wavelength of 580 nm.

[1] = tested on: NIH3T3-AXL cl.7 fibroblasts; experiment: AlamarBlue Gas6-induced proliferation assay; type: cell-based; details: 20 μg/ml antibody, with or without 400 ng/ml Gas6, 96 h
Procedure: In vitro experiments were conducted in order to determine the ability of the rat anti-AXL antibodies of the invention to inhibit Gas6-induced cell proliferation. For this purpose, 2,500 NIH3T3-AXL cl.7 fibroblasts per well were seeded in FCS-containing medium on 96 well plates over night. […] Cells were treated with or without 400 ng/ml mouse Gas6 (R&D Systems) by adding ligand directly to the antibody solution, and were then left to grow for 96 h. AlamarBlue™ (BIOSOURCE #DAL1100) was added and incubated at 37° C. in the dark. Absorbance was measured at 590 nm every 30 min. The data were taken 4 h after addition of AlamarBlue™.

B1: 11B7: antagonistic rat anti-AXL monoclonal antibody, rat IgG1 (antibody, V domains shown)
VL: DIQMTQAPSSLPASLGDRVTITCRASQDIGNYLRWFQQKPGKSPRLMISGATNLAAGVPSRFSGSRSGSDYSLTISSLESEDMADYYCLQSKESPWTFGGGTKLELK
VH: EVQLQESGPGLVKPSQSLSLTCSVTGYSITSNYWGWIRKFPGDKMEWMGYITYSGSTSYNPSLKSRISITRDTSKNQFFLQLNSVTSEDTATYYCAITTFYYWGQGVMVTVSS
competition with antagonistic anti-AXL antibodies for binding to AXL-ECD (human AXL-ECD): compete with each other for the same or structurally adjacent epitopes
cell proliferation [1]: blocked Gas6-induced proliferation
